Where no end group is shown, it is not given here. [ ]: non-standard residue; d: D form. pY = N[C@@H](Cc1ccc(OP(=O)(O)O)cc1)C(=O)O
What was measured:
Experiment in all cases: Phosphatase assay with ENDY(P)INASL as substrate
Assay type in all cases: biochemical
TC.PTP = target: T1, TC.PTP (Homo sapiens, UniProt P17706); settings: TC20
T1 construct: made in house; host or cells: Sf9 cells (baculovirus)
T1 sequence (P17706 1-415): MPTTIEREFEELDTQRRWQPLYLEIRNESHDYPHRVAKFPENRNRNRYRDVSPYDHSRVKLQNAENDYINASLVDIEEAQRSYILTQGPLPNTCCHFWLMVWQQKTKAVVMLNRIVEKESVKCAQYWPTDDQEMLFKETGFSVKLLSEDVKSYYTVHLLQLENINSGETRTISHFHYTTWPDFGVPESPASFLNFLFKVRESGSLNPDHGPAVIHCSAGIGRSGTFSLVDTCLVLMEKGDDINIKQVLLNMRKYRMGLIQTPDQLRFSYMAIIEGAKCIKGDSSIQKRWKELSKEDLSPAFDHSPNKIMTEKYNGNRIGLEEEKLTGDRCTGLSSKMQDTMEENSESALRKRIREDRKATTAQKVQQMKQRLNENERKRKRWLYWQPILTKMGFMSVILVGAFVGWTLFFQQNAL
Procedure: (§1) The tyrosine phosphatases TC.PTP, TCΔC11.PTP, and RPTPα were purified from infected Sf9 cells as described recently (Zander et al., Biochemistry 30: 6964-6970, 1991; Daum et al., J. Biol. Chem. 266: 12211-12215, 1991). The 37 kDa form of PTP1B and CD45 were purified from placenta and spleen, respectively (according to Tonks et al., J. Biol. Chem. 263: 6722-6730, 1988; Tonks et al., Biochemistry 27: 8695-8701, 1988).
(§2) Phosphatase assays with ENDY(P)INASL were performed in buffer M6. Aliquots of 30 μl or 60 μl containing the phosphopeptide, the phosphatase (-beads) and effectors were incubated for 10 minutes at 30° C. The reaction was stopped by adding 200 μl of a suspension of 10% activated, acid-washed Norit A charcoal (v/v) in 0.9N HCl, 0.1M pyrophosphate and 2 mM NaH2 PO4 (according to Streuli et al., Proc. Natl. Acad. Sci. USA 86: 8698-8702, 1989). The mixture was cleared by 10-minute centrifugation and the radioactivity of 150 μl of the supernate was determined. Assays with MBP and RCML were performed as described in Tonks et al., J. Biol. Chem. 263: 6722-6730, 1988. Protein concentration was determined with BSA as standard (Bradford, Anal. Biochem. 72: 248-254, 1976).

CD45 = target: T2, CD45 (Homo sapiens, UniProt P08575)
T2 construct: CD45 were purified from placenta and spleen, respectively; from tissue; host or cells: spleen
T2 sequence (P08575 26-1306): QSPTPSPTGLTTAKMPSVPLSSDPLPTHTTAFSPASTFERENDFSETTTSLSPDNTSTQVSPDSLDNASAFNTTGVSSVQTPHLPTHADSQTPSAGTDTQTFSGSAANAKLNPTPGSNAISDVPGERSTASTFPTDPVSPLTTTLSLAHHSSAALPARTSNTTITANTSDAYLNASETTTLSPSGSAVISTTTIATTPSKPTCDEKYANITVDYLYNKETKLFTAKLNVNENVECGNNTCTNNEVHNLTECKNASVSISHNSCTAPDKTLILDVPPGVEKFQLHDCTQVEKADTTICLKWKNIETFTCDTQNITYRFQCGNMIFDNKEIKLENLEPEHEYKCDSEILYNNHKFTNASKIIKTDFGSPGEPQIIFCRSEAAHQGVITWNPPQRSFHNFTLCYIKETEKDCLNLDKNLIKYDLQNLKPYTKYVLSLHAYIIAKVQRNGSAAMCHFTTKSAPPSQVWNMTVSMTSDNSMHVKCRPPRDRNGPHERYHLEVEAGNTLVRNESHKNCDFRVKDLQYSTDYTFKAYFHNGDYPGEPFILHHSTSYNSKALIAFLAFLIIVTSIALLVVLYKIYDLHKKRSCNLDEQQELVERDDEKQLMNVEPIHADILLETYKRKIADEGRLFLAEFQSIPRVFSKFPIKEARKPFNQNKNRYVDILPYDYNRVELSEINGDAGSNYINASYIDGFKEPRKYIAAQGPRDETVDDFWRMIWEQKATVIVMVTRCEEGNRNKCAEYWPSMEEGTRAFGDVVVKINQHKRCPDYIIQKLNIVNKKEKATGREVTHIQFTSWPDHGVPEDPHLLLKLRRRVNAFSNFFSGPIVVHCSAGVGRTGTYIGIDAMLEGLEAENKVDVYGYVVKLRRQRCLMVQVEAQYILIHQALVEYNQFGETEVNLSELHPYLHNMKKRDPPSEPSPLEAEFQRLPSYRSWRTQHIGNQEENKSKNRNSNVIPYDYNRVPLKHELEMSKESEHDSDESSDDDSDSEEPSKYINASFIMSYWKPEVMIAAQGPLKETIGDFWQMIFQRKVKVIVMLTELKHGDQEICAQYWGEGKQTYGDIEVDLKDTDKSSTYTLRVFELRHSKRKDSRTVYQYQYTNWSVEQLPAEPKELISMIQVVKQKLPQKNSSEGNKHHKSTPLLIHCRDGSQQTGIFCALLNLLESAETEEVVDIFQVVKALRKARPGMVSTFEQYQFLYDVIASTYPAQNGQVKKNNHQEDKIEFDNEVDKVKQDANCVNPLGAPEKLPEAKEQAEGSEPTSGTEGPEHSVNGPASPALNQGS
Procedure: as §1, §2

TCΔC11.PTP = target: T3, TCΔC11.PTP (Homo sapiens, UniProt P17706)
T3 construct: both the wild type and truncated forms of the T-cell phosphatase; made in house; host or cells: Sf9 cells (baculovirus)
T3 sequence (P17706 1-317 limits assumed): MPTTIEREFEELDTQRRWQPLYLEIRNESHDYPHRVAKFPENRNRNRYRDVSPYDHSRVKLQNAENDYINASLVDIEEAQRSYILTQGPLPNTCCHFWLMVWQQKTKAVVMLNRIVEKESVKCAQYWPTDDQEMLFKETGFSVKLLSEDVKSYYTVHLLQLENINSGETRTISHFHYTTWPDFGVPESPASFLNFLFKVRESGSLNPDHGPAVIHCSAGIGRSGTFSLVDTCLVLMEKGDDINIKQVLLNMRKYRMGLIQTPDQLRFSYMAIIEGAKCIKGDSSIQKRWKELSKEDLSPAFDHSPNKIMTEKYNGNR
Procedure: as §1, §2

RPTPα = target: T4, RPTPα (Homo sapiens, UniProt P18433)
T4 construct: made in house; host or cells: Sf9 cells (baculovirus)
Procedure: as §1, §2

[1] = non-linear regression of substrate saturation curves, mean of two experiments
[2] = one unit = release of 1 nmol phosphate per minute

T4 sequence (P18433 20-802): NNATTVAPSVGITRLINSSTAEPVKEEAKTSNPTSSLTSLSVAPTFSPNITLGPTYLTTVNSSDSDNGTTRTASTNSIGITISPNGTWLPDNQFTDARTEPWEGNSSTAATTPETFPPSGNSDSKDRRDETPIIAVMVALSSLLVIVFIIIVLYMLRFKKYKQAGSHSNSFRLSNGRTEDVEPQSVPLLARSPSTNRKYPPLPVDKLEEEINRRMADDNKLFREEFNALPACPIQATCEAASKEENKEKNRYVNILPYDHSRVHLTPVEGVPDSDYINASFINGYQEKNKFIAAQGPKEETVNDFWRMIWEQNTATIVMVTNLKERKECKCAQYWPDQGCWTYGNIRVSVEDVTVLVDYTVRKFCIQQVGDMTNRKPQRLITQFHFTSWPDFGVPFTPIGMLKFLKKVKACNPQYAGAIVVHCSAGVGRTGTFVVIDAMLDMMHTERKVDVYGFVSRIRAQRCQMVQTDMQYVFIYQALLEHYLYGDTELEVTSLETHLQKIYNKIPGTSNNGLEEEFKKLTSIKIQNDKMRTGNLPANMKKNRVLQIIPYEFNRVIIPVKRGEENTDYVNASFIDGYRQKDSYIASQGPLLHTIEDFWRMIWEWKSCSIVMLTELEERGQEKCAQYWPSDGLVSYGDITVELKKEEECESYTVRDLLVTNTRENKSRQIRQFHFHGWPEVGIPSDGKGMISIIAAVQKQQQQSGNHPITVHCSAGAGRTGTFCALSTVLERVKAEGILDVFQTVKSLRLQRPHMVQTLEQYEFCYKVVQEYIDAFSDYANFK

ENDY(P)INASL: ENDYINASL phosphorylated on its tyrosine residue (32P), used as PTP substrate (END[pY]INASL; also: phosphate 32P-labelled)
Km (TC.PTP; [1]): 1.13 ± 0.14 µM | Vmax (TC.PTP; [2]): 14221 +/- 7104 U/mg | Km (CD45; [1]): 13.8 ± 0.28 µM | Vmax (CD45; [2]): 1622 +/- 23 U/mg | Km (TCΔC11.PTP; [1]): 1 ± 0.4 µM | Vmax (TCΔC11.PTP; [2]): 13374 +/- 970 U/mg | Km (RPTPα; [1]): 32.5 ± 3.06 µM | Vmax (RPTPα; [2]): 1038 +/- 88 U/mg

— patent publication US5739278A, “Compositions for protein tyrosine phosphatases” (University of Washington, priority 1995, dated 1998)
